This is an account of results in patent US7045613 (Amgen, dated 2006).

For the test, the target named is T1, Human IKK-α containing an N-terminal Flag epitope tag (human, UniProt O15111 1-745).
T1 construct: Transiently expressed in 293 cells for coimmunoprecipitation; also called IκB Kinase
T1 sequence: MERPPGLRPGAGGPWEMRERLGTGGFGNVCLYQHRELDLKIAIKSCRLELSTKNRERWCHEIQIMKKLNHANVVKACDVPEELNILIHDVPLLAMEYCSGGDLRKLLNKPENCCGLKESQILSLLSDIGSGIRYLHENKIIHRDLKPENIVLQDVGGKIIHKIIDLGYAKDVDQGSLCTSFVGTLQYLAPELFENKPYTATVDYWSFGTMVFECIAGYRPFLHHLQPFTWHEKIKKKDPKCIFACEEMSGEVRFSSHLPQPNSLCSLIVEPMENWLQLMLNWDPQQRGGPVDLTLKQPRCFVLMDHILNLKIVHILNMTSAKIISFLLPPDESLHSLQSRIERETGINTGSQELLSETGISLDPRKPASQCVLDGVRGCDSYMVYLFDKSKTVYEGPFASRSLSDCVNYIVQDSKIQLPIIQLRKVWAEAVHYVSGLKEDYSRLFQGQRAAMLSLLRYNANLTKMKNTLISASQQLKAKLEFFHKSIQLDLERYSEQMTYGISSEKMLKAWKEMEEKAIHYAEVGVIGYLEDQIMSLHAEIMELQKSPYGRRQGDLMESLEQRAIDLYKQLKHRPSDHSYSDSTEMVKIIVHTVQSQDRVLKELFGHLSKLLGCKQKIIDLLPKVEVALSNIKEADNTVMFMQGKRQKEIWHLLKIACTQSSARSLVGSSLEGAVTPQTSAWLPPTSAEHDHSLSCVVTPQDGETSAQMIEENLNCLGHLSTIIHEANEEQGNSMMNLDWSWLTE
The test can be described thus: coimmunoprecipitation from 293 cell lysates, anti-Flag IP, anti-HA immunoblot. From the text: Human IKK-α containing an N-terminal Flag epitope tag was transiently coexpressed in 293 human embryonic kidney cells with Myc epitope-tagged NIK or HA epitope-tagged TRAF proteins. Cell lysates were immunoprecipitated using a monoclonal antibody against the Flag epitope, and coprecipitating NIK or TRAF proteins were detected by immunoblot analysis with an anti-Myc or anti-HA monoclonal antibodies.
For orientation: A western blot detects proteins with antibodies after separation by electrophoresis.

B1: HA epitope-tagged TRAF3 (other, UniProt Q13114 1-568, looked up, not shown: small tags and cut ends)
chain: MESSKKMDSPGALQTNPPLKLHTDRSAGTPVFVPEQGGYKEKFVKTVEDKYKCEKCHLVLCSPKQTECGHRFCESCMAALLSSSSPKCTACQESIVKDKVFKDNCCKREILALQIYCRNESRGCAEQLMLGHLLVHLKNDCHFEELPCVRPDCKEKVLRKDLRDHVEKACKYREATCSHCKSQVPMIALQKHEDTDCPCVVVSCPHKCSVQTLLRSELSAHLSECVNAPSTCSFKRYGCVFQGTNQQIKAHEASSAVQHVNLLKEWSNSLEKKVSLLQNESVEKNKSIQSLHNQICSFEIEIERQKEMLRNNESKILHLQRVIDSQAEKLKELDKEIRPFRQNWEEADSMKSSVESLQNRVTELESVDKSAGQVARNTGLLESQLSRHDQMLSVHDIRLADMDLRFQVLETASYNGVLIWKIRDYKRRKQEAVMGKTLSLYSQPFYTGYFGYKMCARVYLNGDGMGKGTHLSLFFVIMRGEYDALLPWPFKQKVTLMLMDQGSSRRHLGDAFKPDPNSSSFKKPTGEMNIASGCPVFVAQTVLENGTYIKDDTIFIKVIVDTSDLPDP
notes: Transiently coexpressed in 293 cells
For the molecule B1, the binding result is reported as “no binding”.

B2: HA epitope-tagged TRAF2 (other, UniProt Q12933 1-501, looked up, not shown: small tags and cut ends)
chain: MAAASVTPPGSLELLQPGFSKTLLGTKLEAKYLCSACRNVLRRPFQAQCGHRYCSFCLASILSSGPQNCAACVHEGIYEEGISILESSSAFPDNAARREVESLPAVCPSDGCTWKGTLKEYESCHEGRCPLMLTECPACKGLVRLGEKERHLEHECPERSLSCRHCRAPCCGADVKAHHEVCPKFPLTCDGCGKKKIPREKFQDHVKTCGKCRVPCRFHAIGCLETVEGEKQQEHEVQWLREHLAMLLSSVLEAKPLLGDQSHAGSELLQRCESLEKKTATFENIVCVLNREVERVAMTAEACSRQHRLDQDKIEALSSKVQQLERSIGLKDLAMADLEQKVLEMEASTYDGVFIWKISDFARKRQEAVAGRIPAIFSPAFYTSRYGYKMCLRIYLNGDGTGRGTHLSLFFVVMKGPNDALLRWPFNQKVTLMLLDQNNREHVIDAFRPDVTSSSFQRPVNDMNIASGCPLFCPVSKMEAKNSYVRDDAIFIKAIVDLTGL
notes: as for B1
Turning to B2, the binding result is “no binding”.
